These results are taken from doi:10.1101/2024.05.05.592606 (bioRxiv, 2024).

* marks the point of attachment. 5FAM = O=C1OC2(c3ccc(O)cc3Oc3cc(O)ccc32)c2ccc(C(=O)*)cc21

B1: DAX1-3 FAM-labeled coregulator peptide (peptide)
peptide: 5FAM-QGSILYSLLMSAKQ-OH
SMILES: CC[C@H](C)[C@H](NC(=O)[C@H](CO)NC(=O)CNC(=O)[C@H](CCC(N)=O)NC(=O)c1ccc2c(c1)C(=O)OC21c2ccc(O)cc2Oc2cc(O)ccc21)C(=O)N[C@@H](CC(C)C)C(=O)N[C@@H](Cc1ccc(O)cc1)C(=O)N[C@@H](CO)C(=O)N[C@@H](CC(C)C)C(=O)N[C@@H](CC(C)C)C(=O)N[C@@H](CCSC)C(=O)N[C@@H](CO)C(=O)N[C@@H](C)C(=O)N[C@@H](CCCCN)C(=O)N[C@@H](CCC(N)=O)C(=O)O
B2: PGC1α FAM-labeled coregulator peptide (peptide)
peptide: 5FAM-EEPSLLKKLLLAPA-OH
SMILES: CC(C)C[C@H](NC(=O)[C@H](CC(C)C)NC(=O)[C@H](CC(C)C)NC(=O)[C@H](CCCCN)NC(=O)[C@H](CCCCN)NC(=O)[C@H](CC(C)C)NC(=O)[C@H](CC(C)C)NC(=O)[C@H](CO)NC(=O)[C@@H]1CCCN1C(=O)[C@H](CCC(=O)O)NC(=O)[C@H](CCC(=O)O)NC(=O)c1ccc2c(c1)C(=O)OC21c2ccc(O)cc2Oc2cc(O)ccc21)C(=O)N[C@@H](C)C(=O)N1CCC[C@H]1C(=O)N[C@@H](C)C(=O)O
B3: SHP-1 FAM-labeled coregulator peptide (peptide)
peptide: 5FAM-RPTILYALLSPSPR-OH
SMILES: CC[C@H](C)[C@H](NC(=O)[C@@H](NC(=O)[C@@H]1CCCN1C(=O)[C@H](CCCNC(=N)N)NC(=O)c1ccc2c(c1)C(=O)OC21c2ccc(O)cc2Oc2cc(O)ccc21)[C@@H](C)O)C(=O)N[C@@H](CC(C)C)C(=O)N[C@@H](Cc1ccc(O)cc1)C(=O)N[C@@H](C)C(=O)N[C@@H](CC(C)C)C(=O)N[C@@H](CC(C)C)C(=O)N[C@@H](CO)C(=O)N1CCC[C@H]1C(=O)N[C@@H](CO)C(=O)N1CCC[C@H]1C(=O)N[C@@H](CCCNC(=N)N)C(=O)O

The target of the experiment is human LRH-1 (NR5A2) ligand-binding domain (LBD) (human, UniProt O00482-1 266-541). The experiment is described as follows: fluorescence polarisation.
Sequence of human LRH-1 (NR5A2) ligand-binding domain (LBD) (O00482 266-541): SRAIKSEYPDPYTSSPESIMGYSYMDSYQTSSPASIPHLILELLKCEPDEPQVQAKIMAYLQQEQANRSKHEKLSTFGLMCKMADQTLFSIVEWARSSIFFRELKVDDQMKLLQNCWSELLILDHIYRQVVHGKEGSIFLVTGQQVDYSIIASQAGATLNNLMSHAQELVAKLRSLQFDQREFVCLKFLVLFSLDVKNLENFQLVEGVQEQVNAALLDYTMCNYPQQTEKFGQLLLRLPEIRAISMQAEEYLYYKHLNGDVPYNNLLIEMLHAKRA
Turning to B1, the binding result is “binds”.
To B2 belongs “binds”; to B3, “binds”.
